Tests used:
[1] = biological target: T1, 前列腺特异性膜抗原 (PSMA) on LNCaP cells (UniProt Q04609 1-750, limits assumed); assay: cell ELISA on fixed LNCaP (PSMA+) against MKN45 (PSMA-) cells, HRP-anti-M13 detection
T1 construct: whole, on cells; Endogenous PSMA on LNCaP cells; MKN45 cells (no PSMA) served as negative cells; also called prostate specific membrane antigen

[2] = biological target: T2, PSMA胞外区蛋白 (重组表达的前列腺特异性膜抗原膜外区) (UniProt Q04609 44-750); assay: indirect phage-ELISA, PSMA extracellular region coated at 5 μg/mL, HRP-anti-M13 detection
T2 construct: extracellular domain; also called PSMA蛋白; PSMA抗原; not shown: His tag from vector pRAG2a (purified by HisTrap, detected by anti-His antibody)
T2 sequence (Q04609 44-750): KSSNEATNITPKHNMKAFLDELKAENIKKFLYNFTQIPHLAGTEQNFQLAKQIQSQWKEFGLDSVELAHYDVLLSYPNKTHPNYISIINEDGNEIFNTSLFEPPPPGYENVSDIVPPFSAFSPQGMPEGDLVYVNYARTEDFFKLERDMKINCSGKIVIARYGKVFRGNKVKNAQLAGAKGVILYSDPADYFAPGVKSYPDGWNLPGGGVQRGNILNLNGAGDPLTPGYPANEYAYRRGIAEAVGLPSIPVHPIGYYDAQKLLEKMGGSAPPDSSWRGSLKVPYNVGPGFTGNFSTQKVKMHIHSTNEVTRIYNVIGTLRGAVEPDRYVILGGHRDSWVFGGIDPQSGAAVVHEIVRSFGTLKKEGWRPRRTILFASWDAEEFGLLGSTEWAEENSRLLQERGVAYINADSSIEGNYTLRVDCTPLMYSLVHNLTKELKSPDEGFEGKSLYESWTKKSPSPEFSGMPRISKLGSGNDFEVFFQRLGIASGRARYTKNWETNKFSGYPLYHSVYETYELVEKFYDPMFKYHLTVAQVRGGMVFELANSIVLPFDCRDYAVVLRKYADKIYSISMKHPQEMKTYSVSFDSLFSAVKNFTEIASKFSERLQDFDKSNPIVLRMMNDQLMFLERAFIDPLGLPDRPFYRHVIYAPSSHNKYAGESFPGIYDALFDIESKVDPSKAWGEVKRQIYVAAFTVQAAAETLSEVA

T1 sequence (Q04609 whole entry): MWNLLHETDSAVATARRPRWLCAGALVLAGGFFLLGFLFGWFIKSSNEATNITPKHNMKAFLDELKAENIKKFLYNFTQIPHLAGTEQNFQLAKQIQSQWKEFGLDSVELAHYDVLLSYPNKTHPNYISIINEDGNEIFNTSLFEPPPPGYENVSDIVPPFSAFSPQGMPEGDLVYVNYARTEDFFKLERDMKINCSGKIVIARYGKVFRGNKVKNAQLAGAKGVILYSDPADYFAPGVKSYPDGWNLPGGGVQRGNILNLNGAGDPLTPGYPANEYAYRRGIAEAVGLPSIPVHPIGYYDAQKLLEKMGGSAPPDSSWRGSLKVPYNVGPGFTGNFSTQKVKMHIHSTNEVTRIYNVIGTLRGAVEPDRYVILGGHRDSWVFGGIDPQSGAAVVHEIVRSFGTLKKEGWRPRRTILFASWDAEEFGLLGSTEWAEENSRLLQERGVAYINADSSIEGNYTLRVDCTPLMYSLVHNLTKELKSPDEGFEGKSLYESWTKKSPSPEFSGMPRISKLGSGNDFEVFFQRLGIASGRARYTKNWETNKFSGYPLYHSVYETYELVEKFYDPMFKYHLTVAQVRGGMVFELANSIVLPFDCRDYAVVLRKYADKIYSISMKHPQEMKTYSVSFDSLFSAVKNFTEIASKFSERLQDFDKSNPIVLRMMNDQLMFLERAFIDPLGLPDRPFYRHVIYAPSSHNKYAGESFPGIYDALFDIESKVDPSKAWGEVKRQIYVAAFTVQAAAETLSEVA

B1: 抗前列腺特异性膜抗原单域重链抗体噬菌体阳性克隆 (VHH)
VHH: QVQLVESGGGLVQAGGSLRLSCAASGRTFSRRDMGWFRQAPGKEREFVASISRSSAYTNYADSVKDRFTISRDNAKNTVYLQMYNLKPEDTAVYYCAAANYSTTRASAYRYWGQGTQVTVSS
notes: also called 针对前列腺特异性膜抗原的单域重链抗体阳性克隆; 展示本发明所述纳米抗体的噬菌体克隆; not shown: the phage coat protein fusion and any linker or tag are not described
B1: binds [1]; binds [2].

— patent publication CN105542009A (UNIV NANCHANG, dated 2016)
